# From paper PMC8580805 (Biophysical Reviews, 2021)
# Where “and” joins values, the source holds several entries; their conditions need not be identical. Equal values may be shown once.
# B1: photosynthetic AB-GAPDH, A2B2 hetero-tetramer (glyceraldehyde 3-phosphate dehydrogenase) from spinach (complex)
# chain 1: KLKVAINGFGRIGRNFLRCWHGRKDSPLDVVVINDTGGVKQASHLLKYDSILGTFDADVKTAGDSAISVDGKVIKVVSDRNPVNLPWGDMGIDLVIEGTGVFVDRDGAGKHLQAGAKKVLITAPGKGDIPTYVVGVNEEGYTHADTIISNASCTTNCLAPFVKVLDQKFGIIKGTMTTTHSYTGDQRLLDASHRDLRRARAACLNIVPTSTGAAKAVALVLPNLKGKLNGIALRVPTPNVSVVDLVVQVSKKTFAEEVNAAFRESADNELKGILSVCDEPLVSIDFRCTDVSSTIDSSLTMVMGDDMVKVIAWYDNEWGYSQRVVDLADIVANKWQ
# chain 2: KLKVAINGFGRIGRNFLRCWHGRKDSPLDVVVVNDSGGVKSATHLLKYDSILGTFKADVKIIDNETFSIDGKPIKVVSNRDPLKLPWAELGIDIVIEGTGVFVDGPGAGKHIQAGAKKVIITAPAKGSDIPTYVVGVNEKDYGHDVANIISNASCTTNCLAPFVKVLDEELGIVKGTMTTTHSYTGDQRLLDASHRDLRRARAAALNIVPTSTGAAKAVSLVLPQLKGKLNGIALRVPTPNVSVVDLVVNIEKVGVTAEDVNNAFRKAAAGPLKGVLDVCDIPLVSVDFRCSDFSSTIDSSLTMVMGGDMVKVVAWYDNEWGYSQRVVDLADLVANKWPGLEGSVASGDPLEDFCKDNPADEECKLYE
# B2: photosynthetic GAPDH B-subunit from spinach (natural protein, UniProt P12860 84-451, looked up)
# chain: B1 chain 2
# B3: photosynthetic GAPDH A-subunit from spinach (natural protein, UniProt P19866 66-401, looked up)
# chain: B1 chain 1
# Assays:
# [1] = molecular target: insect Toll receptor ectodomain (insect (species not stated)) (UniProt P08953); test: biophysical and cellular analysis
# [2] = molecular target: the molecule itself; test: SEC-SAXS + cryo-EM structure
# cryo-EM structure = molecular target: the molecule itself; test: cryo-EM structure
# [3] = molecular target: B2; test: cryo-EM structure
# Sequence of insect Toll receptor ectodomain (insect (species not stated)) (P08953 28-807): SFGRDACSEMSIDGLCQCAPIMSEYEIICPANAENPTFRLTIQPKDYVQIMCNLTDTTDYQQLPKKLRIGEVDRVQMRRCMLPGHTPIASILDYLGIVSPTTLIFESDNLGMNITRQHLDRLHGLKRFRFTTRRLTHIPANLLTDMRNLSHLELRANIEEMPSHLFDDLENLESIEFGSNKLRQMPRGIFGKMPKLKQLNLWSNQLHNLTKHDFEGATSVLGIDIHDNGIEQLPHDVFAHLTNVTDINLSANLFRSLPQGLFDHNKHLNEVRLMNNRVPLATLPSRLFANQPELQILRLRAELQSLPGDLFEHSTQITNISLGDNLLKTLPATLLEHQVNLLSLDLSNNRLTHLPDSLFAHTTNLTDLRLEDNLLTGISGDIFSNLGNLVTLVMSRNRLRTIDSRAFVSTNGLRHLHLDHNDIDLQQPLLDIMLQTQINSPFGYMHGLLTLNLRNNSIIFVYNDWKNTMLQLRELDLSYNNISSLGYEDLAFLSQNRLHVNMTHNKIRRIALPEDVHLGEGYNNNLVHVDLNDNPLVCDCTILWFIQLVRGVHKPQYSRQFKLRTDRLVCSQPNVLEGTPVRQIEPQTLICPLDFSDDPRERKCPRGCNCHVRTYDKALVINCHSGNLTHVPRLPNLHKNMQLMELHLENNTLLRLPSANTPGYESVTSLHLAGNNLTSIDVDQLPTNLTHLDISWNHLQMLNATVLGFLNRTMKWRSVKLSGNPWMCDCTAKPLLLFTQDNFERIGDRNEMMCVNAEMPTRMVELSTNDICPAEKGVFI
molecule,measurement,setting,value
insect cytokine ligand Spatzle (from UniProt P48607 26-326),stoichiometry N (Toll per Spatzle (2:2)),[1],1
B1,stoichiometry N,[2],2 A2B2 tetramers per oligomer and 4 A2B2 tetramers per oligomer and 5 A2B2 tetramers per oligomer
B2,binding result,cryo-EM structure,binds
B3,binding result,[3],binds
